Experiments:
U1A [1] = molecular target: T1, U1A (UniProt P09012 P09012:1-282); test: TR-FRET/HTRF; 5 nM U1A, 1.25 nM RNA; 150 mM NaCl, 25 mM HEPES pH 7.3, 1 mM DTT, 0.05% pluronic F-127, room temperature; details: tags: His tag, LS Bio G19194-10; named Biotin5')
U1A [2] = molecular target: T1, U1A; test: competition; displaces Target-Biotin RNA from U1A; titrated from 1000 nM; IC50 only in figure; details: tags: His tag, LS Bio G19194-10
MSI2 (Musashi-2) [3] = molecular target: T2, MSI2 (Musashi-2) (UniProt Q96DH6 Q96DH6:1-328); test: TR-FRET/HTRF; 5 nM MSI2, 1.25 nM RNA; 150 mM NaCl, 25 mM HEPES pH 7.3, 1 mM DTT, 0.05% pluronic F-127, room temperature; details: tags: His tag, LS Bio G2396; named Biotin5')
MSI2 (Musashi-2) [4] = molecular target: T2, MSI2 (Musashi-2); test: competition; displaces NUMB-Biotin RNA from MSI2; titrated from 1000 nM; IC50 only in figure; details: tags: His tag, LS Bio G2396

T2 sequence (Q96DH6 whole entry, one chain of several): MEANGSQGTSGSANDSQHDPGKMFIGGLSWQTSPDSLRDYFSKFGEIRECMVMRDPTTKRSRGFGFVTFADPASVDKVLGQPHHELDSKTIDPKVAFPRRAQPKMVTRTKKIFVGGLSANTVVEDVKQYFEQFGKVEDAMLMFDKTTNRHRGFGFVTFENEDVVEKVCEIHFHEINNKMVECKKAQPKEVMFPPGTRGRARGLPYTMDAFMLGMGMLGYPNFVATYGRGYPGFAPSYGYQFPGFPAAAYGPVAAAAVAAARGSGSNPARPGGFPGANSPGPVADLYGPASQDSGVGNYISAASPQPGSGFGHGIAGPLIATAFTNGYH
T1 sequence (P09012 whole entry, one chain of several): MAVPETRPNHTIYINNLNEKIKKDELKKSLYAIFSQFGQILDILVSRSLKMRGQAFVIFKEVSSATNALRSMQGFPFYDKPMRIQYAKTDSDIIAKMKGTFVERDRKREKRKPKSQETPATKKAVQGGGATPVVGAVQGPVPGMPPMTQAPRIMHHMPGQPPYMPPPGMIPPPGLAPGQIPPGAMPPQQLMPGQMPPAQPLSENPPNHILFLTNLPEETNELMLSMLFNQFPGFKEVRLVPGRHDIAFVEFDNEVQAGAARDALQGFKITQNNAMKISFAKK

AUUGCACUCCUUUUA (ssRNA) [U1A Target-Biotin RNA probe]: binds (U1A [1]).

AUUGCACUCCUUUUA (ssRNA) [U1A Target-CTRL RNA (unlabelled)]: binds (U1A [2]).

UAGGUAGUAGUUUUA (ssRNA) [NUMB-Biotin RNA probe]: binds (MSI2 (Musashi-2) [3]).

UAGGUAGUAGUUUUA (ssRNA) [NUMB-CTRL RNA (unlabelled)]: binds (MSI2 (Musashi-2) [4]).

— patent US20220291209, “MOLECULAR TARGET IN CANCER” (The Regents of the University of California, published 2022)
